Results as given in patent publication US20240033343A1.
pKd: −log10 of the molar value. Where two headings read alike, the source gives them in different places.

Columns and labels:
[1] = biological target: SARS-CoV-2 Sclamp (SARS-CoV-2) (UniProt P0DTC2); assay: characterization of the lead candidate; ELISA per paragraph 282
[2] = biological target: SARS-CoV-2 Sclamp (SARS-CoV-2) (UniProt P0DTC2)
[3] = biological target: SARS-CoV-2 Sclamp (SARS-CoV-2) (UniProt P0DTC2); assay: ELISA on purified antigen, antibody titrated
[4] = biological target: SARS-CoV-2-foldon (SARS-CoV-2) (UniProt P0DTC2); assay: ELISA on purified antigen, antibody titrated

Row | Substance | pKd [1] | pKd [2] | EC50 (read off the curve) [3] [nM] | EC50 (read off the curve) [4] [nM]
1 | CR3022 (antibody) | 9.52 | 9.89 |  | 
2 | CB6 (antibody) |  | 9.82 |  | 
3 | S309 (antibody) |  | 10.10 |  | 
4 | huCR3022 (antibody) |  |  | 0.6 | 0.6
5 | DH1047 (antibody) |  |  | 0.3 | 0.4
